Target: Staphylococcus aureus enterotoxin C3, wild type (Staphylococcus aureus) (UniProt P0A0L5)
Assay: ITC

## variable domain of the murine T cell receptor (TCR) β chain 8.2 (domain or fragment)
  dH: -4.88 kcal/mol

Reference: paper PMC2964404
